The record followed here is patent US20240400657A1 (MorphoSys, published 2024).

Experiment [1] deals with T1, Cynomolgus FcRn p51 [1-297]_AviHis/p14 biotinylated (cynomolgus monkey, UniProt Q8SPV9 24-298; Q6T672 21-119, biotinylated in vitro with BirA (Avi tag)).
T1 construct: Heterodimer; UniProt Q8SPV9 (p51)
Nature of the experiment: BLI (Octet HTX), biotinylated FcRn on SA sensors, IgG titrated, steady state fit, apparent KD, pH 6.0; * deviation from fit model; pH 6.0. For orientation: In BLI a coated tip is dipped into the sample, and binding shifts an interference pattern.
Description: (§1) 0.5 nm of biotinylated human, cynomolgus, mouse and rat FcRn were captured on streptavidin (SA) sensors (FortéBIO, Pall Life Sciences). […] All sensorgrams were fitted using Data Analysis Software 10.0 (FortéBIO, Pall Life Sciences) to determine the apparent affinity and the data was fitted with a steady state model.

The target of experiment [2] is T2, HIS6-mouse C5aR-HV1B1-GAG (mouse).
T2 construct: negative control; also called murine C5aR on VLPs; mouse C5aR expressed on virus-like-particles
Nature of the experiment: ELISA on coated VLPs, IgG titration. On the technique in general: ELISA stands for enzyme-linked immunosorbent assay.

In experiment [3] the target is T3, C5aR expressed on purified human neutrophils (human, UniProt P21730 1-350).
T3 sequence (looked up): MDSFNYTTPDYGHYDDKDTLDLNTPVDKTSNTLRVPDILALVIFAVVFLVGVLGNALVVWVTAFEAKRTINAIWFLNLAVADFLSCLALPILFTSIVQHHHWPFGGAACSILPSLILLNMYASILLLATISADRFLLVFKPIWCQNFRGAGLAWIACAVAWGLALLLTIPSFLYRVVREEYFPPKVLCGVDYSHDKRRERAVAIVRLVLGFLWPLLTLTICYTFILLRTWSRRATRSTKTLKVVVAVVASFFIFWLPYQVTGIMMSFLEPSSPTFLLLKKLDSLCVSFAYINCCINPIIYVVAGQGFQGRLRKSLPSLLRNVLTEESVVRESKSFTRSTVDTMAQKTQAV
Description: cell-based or functional assay.

The target in experiment [4] is T4, cynomolgus C5aR_NT-bio peptide (cynomolgus monkey, biotin tag (position not given)).
T4 construct: Chemically synthesized linear peptide (Genscript); also called cynomolgus C5aR N-terminal peptide; cynomolgus C5aR peptide
T4 peptide: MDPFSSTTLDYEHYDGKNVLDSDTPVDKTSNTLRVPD
Nature of the experiment: BLI (Octet), apparent (bivalent).

The target of experiment [5] is T5, full-length human C5L2 expressed on CHO Flp-In cells (human, UniProt Q9P296 1-337).
T5 construct: also called C5a anaphylatoxin chemotactic receptor 2
T5 sequence (Q9P296 whole entry): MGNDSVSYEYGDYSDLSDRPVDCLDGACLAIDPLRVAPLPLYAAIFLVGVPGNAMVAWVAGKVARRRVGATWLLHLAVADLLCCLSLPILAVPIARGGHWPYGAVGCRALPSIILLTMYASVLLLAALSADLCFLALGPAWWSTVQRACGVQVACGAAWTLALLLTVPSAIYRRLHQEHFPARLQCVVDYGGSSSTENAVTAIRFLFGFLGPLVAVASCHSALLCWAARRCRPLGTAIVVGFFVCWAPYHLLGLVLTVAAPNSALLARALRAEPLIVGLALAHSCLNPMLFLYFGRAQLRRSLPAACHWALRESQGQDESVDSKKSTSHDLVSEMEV
Description: FACS, CHO Flp-In cells expressing human C5L2, single IgG concentration. In general terms: In flow cytometry, cells or beads pass a laser one at a time.

Experiment [6] addresses T3, C5aR expressed on purified human …. Description: FACS on purified human neutrophils, IgG titration.
Description: Neutrophils were purified from EDTA-whole blood samples using a MACSexpress® Neutrophil Isolation Cocktail from Miltenyi Biotec. Briefly, using this kit, cells are isolated using magnetic labeling and negative magnetic separation. […] Measurements were done at the FACS Array device. FACS data were evaluated using FlowJo™, entered into GraphPad® Prism (v4.0) and fitted to the sigmoidal dose-response curve using non-linear regression to calculate the EC50.
Experiment [7] deals with T6, engineered version of human C5aR expressed on CHO cells of the PathHunter β-arrestin assay (DiscoveRx) (human, UniProt P21730 1-350).
T6 sequence (looked up): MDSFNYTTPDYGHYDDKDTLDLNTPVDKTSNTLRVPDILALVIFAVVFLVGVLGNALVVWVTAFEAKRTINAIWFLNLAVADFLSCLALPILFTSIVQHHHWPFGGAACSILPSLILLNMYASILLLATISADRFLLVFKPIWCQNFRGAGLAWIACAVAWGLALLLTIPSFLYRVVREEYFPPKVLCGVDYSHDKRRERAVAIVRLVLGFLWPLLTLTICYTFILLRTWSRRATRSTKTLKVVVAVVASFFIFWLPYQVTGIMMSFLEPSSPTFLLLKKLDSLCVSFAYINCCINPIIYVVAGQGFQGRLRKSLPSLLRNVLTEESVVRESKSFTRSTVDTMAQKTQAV
Description: cell-based or functional assay.

The target of experiment [8] is T4, cynomolgus C5aR_NT-bio peptide. Description: BLI (Octet HTX), biotinylated peptide on SA sensors, IgG as analyte, 1:1 fit, apparent (bivalent); fast koff.
The target in experiment [9] is T7, full length mouse C5aR stably expressed on CHO Flp-In cells (mouse (Mus musculus), UniProt P30993 1-351).
T7 sequence: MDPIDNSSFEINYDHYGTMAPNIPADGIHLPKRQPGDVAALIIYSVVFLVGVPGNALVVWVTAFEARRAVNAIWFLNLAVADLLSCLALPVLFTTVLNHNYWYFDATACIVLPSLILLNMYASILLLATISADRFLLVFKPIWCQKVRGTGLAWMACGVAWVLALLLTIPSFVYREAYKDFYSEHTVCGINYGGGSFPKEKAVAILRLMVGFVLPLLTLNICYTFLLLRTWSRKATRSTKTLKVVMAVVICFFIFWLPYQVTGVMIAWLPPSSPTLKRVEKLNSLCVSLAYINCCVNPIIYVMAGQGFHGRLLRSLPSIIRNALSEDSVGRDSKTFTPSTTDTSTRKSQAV
Nature of the experiment: FACS, CHO Flp-In cells expressing murine C5aR, single IgG concentration.

The target of experiment [10] is T1, Cynomolgus FcRn p51 [1-297]_AviHis/p14 …. Description: BLI (Octet HTX), biotinylated FcRn on SA sensors, IgG titrated, steady state fit, apparent KD, pH 6.0; * deviation from fit model.
Description: as §1
Experiment [11] addresses T8, full length cynomolgus C5aR stably expressed on CHO Flp-In cells (cynomolgus monkey (Macaca fascicularis)).
T8 chain: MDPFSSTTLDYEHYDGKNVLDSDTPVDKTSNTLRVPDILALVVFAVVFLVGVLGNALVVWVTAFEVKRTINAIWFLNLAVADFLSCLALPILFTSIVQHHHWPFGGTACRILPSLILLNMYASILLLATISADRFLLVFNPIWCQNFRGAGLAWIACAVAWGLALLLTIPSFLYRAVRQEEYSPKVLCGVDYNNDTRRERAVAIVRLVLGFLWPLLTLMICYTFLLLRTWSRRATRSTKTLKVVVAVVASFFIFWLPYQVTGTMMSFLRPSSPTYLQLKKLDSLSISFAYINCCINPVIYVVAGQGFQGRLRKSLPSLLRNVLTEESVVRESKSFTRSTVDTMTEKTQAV
Nature of the experiment: KinExA on Flp-In CHO cells.
Description: (§2) Apparent KD determination on C5aR-expressing cells was performed at RT with a KinExA® 3200 instrument (Sapidyne Instruments). PBS (Gibco), supplemented with BSA (1 mg/mL) and 0.02% (v/v) NaN₃ was used as assay buffer. […] After equilibration, the samples were centrifuged and the supernatants were used for analysis. […] The apparent KD was obtained using KinExA® software and by “n-curve analysis,” which fits all of the given curves to a single KD value simultaneously.

Experiment [12] concerns the target T2, HIS6-mouse C5aR-HV1B1-GAG. Description: ELISA, coated VLPs expressing mC5aR, IgG titration, AttoPhos fluorescence.
For experiment [13], the target named is T1, Cynomolgus FcRn p51 [1-297]_AviHis/p14 …. Nature of the experiment: BLI (Octet HTX), biotinylated FcRn on SA sensors, IgG titrated, steady state fit, apparent KD, pH 7.2; ** slight binding at pH 7.2.
Description: as §1
The target in experiment [14] is T9, full length human C5aR stably expressed on CHO Flp-In cells (human, UniProt P21730 1-350).
T9 construct: also called human C5aR expressed on CHO cells
T9 sequence: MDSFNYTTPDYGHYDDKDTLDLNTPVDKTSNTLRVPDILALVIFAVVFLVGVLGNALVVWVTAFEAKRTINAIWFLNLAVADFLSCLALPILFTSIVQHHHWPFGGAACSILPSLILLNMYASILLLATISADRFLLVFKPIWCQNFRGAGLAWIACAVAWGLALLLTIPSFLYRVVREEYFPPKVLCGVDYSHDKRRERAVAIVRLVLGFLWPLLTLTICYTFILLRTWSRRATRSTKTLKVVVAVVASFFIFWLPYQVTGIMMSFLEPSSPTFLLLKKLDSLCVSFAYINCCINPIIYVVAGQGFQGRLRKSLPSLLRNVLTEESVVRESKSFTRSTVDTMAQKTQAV
Nature of the experiment: KinExA, MAB #1 as analyte, Flp-In CHO cells as titrant, apparent (bivalent) KD, n-curve analysis.
Description: as §2

For experiment [15], the target named is T3, C5aR expressed on purified human …. Description: cell-based or functional assay. The source holds these as a separate data set.

As usually defined, the EC50 is the concentration giving half of the maximal effect. The term koff denotes the rate constant with which the complex falls apart. By kon is commonly meant the rate constant with which the complex forms.

B1: MAB #2 (antibody, human IgG1, lambda)
heavy: EVQLVESGGGLVKPGGSLRLSCAASGFTFSSYAMHWVRQAPGKGLEWVGRIKSVAQGGTTDYAAHVKGRFTISRDDSKNTLYLQMNSLKTEDTAVYYCARVSHSTFDVWGQGTLVTVSSASTKGPSVFPLAPSSKSTSGGTAALGCLVKDYFPEPVTVSWNSGALTSGVHTFPAVLQSSGLYSLSSVVTVPSSSLGTQTYICNVNHKPSNTKVDKRVEPKSCDKTHTCPPCPAPEAEGAPSVFLFPPKPKDTLMISRTPEVTCVVVDVSHEDPEVKFNWYVDGVEVHNAKTKPREEQYNSTYRVVSVLTVLHQDWLNGKEYKCKVSNKALPSSIEKTISKAKGQPREPQVYTLPPSREEMTKNQVSLTCLVKGFYPSDIAVEWESNGQPENNYKTTPPVLDSDGSFFLYSKLTVDKSRWQQGNVFSCSVMHEALHNHYTQKSLSLSPGK
light: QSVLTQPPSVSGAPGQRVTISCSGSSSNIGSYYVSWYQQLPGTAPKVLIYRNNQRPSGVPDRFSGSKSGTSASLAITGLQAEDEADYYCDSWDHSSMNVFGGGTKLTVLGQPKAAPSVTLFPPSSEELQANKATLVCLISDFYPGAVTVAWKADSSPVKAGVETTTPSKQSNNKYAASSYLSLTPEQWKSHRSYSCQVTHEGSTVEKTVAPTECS
notes: lambda 1 light chain
Turning to B1, the Kd in experiment [1] amounted to 30 nM. In [2], the binding result is on record as “no binding”. Besides, in [3], the “IgG concentration for 50% inhibition of CD11b upregulation, granulocytes, 15 nM human C5a” value is 17 nM and the “IgG concentration for 50% inhibition of CD11b upregulation, granulocytes, 150 nM human C5a” value was determined as 114 nM. In addition, the “fold weaker binding than to the human C5aR peptide” value in experiment [4] was approximately 1000 fold. Also, the binding result in [5] is recorded as “no binding (tested: 300 nM)”. Also, the 50% effective concentration (EC50) in experiment [6] turned out to be 5.4 nM. Moreover, in experiment [7], the “Activity of human C5a EC50 (nM) in presence of 50 nM anti-C5aR antibody, β-arrestin recruitment” value was determined as 37 nM and the “x fold reduced activity of C5a in presence of anti-C5aR antibody (50 nM)” value is 12.8 fold. Besides, in experiment [8], the Kd was found to be 140 nM, the koff amounted to 0.0189 s⁻¹ and the association rate constant (kon) amounted to 138000 M⁻¹ s⁻¹. Moreover, the binding result in [9] is “no binding (tested: 300 nM)”.

B2: MAB #1 (antibody, human IgG1, lambda)
heavy: EVQLVESGGGLVKPGGSLRLSCAASGFTFSSYAMHWVRQAPGKGLEWVGRIKSKAQGGTTDYAAHVKGRFTISRDDSKNTLYLQMNSLKTEDTAVYYCARVSFSTFDVWGQGTLVTVSSASTKGPSVFPLAPSSKSTSGGTAALGCLVKDYFPEPVTVSWNSGALTSGVHTFPAVLQSSGLYSLSSVVTVPSSSLGTQTYICNVNHKPSNTKVDKRVEPKSCDKTHTCPPCPAPEAEGAPSVFLFPPKPKDTLMISRTPEVTCVVVDVSHEDPEVKFNWYVDGVEVHNAKTKPREEQYNSTYRVVSVLTVLHQDWLNGKEYKCKVSNKALPSSIEKTISKAKGQPREPQVYTLPPSREEMTKNQVSLTCLVKGFYPSDIAVEWESNGQPENNYKTTPPVLDSDGSFFLYSKLTVDKSRWQQGNVFSCSVMHEALHNHYTQKSLSLSPGK
light: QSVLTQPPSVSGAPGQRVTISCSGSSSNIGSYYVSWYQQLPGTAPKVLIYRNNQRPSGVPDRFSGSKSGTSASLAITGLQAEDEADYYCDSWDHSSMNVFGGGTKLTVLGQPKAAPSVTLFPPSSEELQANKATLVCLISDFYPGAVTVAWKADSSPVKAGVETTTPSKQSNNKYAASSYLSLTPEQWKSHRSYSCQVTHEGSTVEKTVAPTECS
notes: lambda 1 light chain, VH3-15 framework
In the case of B2, the Kd stood at 6.8 nM in [10], 560 nM in [13], 0.13 nM in [14] and 63 nM in experiment [8]. In addition, the “fold weaker binding than to full-length human C5aR” value in [11] is approximately 20 fold. Moreover, the binding result in experiment [12] is “no binding (tested: ~300 nM)”; in experiment [5], “no binding (tested: 300 nM)”; in experiment [9] it was “no binding (tested: 300 nM)”. In addition, in experiment [3], the “IgG concentration for 50% inhibition of CD11b upregulation, granulocytes, 15 nM human C5a” value amounted to 12 nM. Besides, in experiment [3], the “IgG concentration for 50% inhibition of CD11b upregulation, granulocytes, 150 nM human C5a” value was found to be 42 nM. In experiment [4], the “fold weaker binding than to the human C5aR peptide” value is approximately 1000 fold. Besides, the EC50 in experiment [6] came to 6 nM. The “Activity of human C5a EC50 (nM) in presence of 50 nM anti-C5aR antibody, β-arrestin recruitment” value in experiment [7] worked out at 37 nM. Also, the “x fold reduced activity of C5a in presence of anti-C5aR antibody (50 nM)” value in experiment [7] was determined as 12.8 fold. In addition, the “Inhibition of CD11b expression, granulocytes in whole blood, 15 nM C5a: IC50” value in experiment [15] worked out at 9.8 nM. The “Inhibition of CD11b expression, monocytes in whole blood, 15 nM C5a: IC50” value in experiment [15] worked out at 4.2 nM. Further, in [8], the off-rate (koff) was 0.0108 s⁻¹. Further, the kon in experiment [8] came out at 171000 M⁻¹ s⁻¹.
